Source: patent US20030044814

Molecular target: Rab5 (recombinant, purified from E. coli)

Protein | GTP hydrolysis assay (percentage of non-hydrolysed [gamma-32P]GTP remaining bound to filters)
PRC17 (wild type) (protein) MDVVEVAGSWWAQEREDIIMKYEKGHRAGLPEDKGPKPFRSYNNNVDHLGIVHETELPPLTAREAKQIRREISRKSKWVDMLGDWEKYKSSRKLIDRAYKGMPMNIRGPMWSVLLNIEEMKLKNPGRYQIMKEKGKRSSEHIQRIDRDVSGTLRKHIFFRDRYGTKQRELLHILLAYEEYNPEVGYCRDLSHIAALFLLYLPEEDAFWALVQLLASERHSLQGFHSPNGGTVQGLQDQQEHVVATSQPKTMGHQDKKDLCGQCSPLGCLIRILIDGISLGLTLRLWDVYLVEGEQALMPITRIAFKVQQKRLTKTSRCGPWARFCNRFVDTWARDEDTVLKHLRASMKKLTRKQGDLPPPAKPEQGSSASRPVPASRGGKTLCKGDRQAPPGPPARFPRPIWSASPPRAPRSSTPCPGGAVREDTYPVGTQGVPSPALAQGGPQGSWRFLQWNSMPRLPTDLDVEGPWFRHYDFRQSCWVRAISQEDQLAPCWQAEHPAERVRSAFAAPSTDSDQGTPFRARDEQPCAPTSGPCLCGLHLESSQFPPGF | Addition of wild type PRC17 resulted in a 30% reduction of GTP-bound Rab5
mutant form PRC17 (Arg107 and Asp148 substituted by alanines) (protein) MDVVEVAGSWWAQEREDIIMKYEKGHRAGLPEDKGPKPFRSYNNNVDHLGIVHETELPPLTAREAKQIRREISRKSKWVDMLGDWEKYKSSRKLIDRAYKGMPMNIAGPMWSVLLNIEEMKLKNPGRYQIMKEKGKRSSEHIQRIDRAVSGTLRKHIFFRDRYGTKQRELLHILLAYEEYNPEVGYCRDLSHIAALFLLYLPEEDAFWALVQLLASERHSLQGFHSPNGGTVQGLQDQQEHVVATSQPKTMGHQDKKDLCGQCSPLGCLIRILIDGISLGLTLRLWDVYLVEGEQALMPITRIAFKVQQKRLTKTSRCGPWARFCNRFVDTWARDEDTVLKHLRASMKKLTRKQGDLPPPAKPEQGSSASRPVPASRGGKTLCKGDRQAPPGPPARFPRPIWSASPPRAPRSSTPCPGGAVREDTYPVGTQGVPSPALAQGGPQGSWRFLQWNSMPRLPTDLDVEGPWFRHYDFRQSCWVRAISQEDQLAPCWQAEHPAERVRSAFAAPSTDSDQGTPFRARDEQPCAPTSGPCLCGLHLESSQFPPGF | addition of the mutant form PRC17 had no effect on Rab5 GTP-hydrolysis
